Source: patent US5571894, “Recombinant antibodies specific for a growth factor receptor” (Ciba-Geigy Corporation, dated 1996)

Experiments:
[1] = target: 185 kD c-erbB-2 protein from SKBR3 cell lysates (human, UniProt P04626); test: immunoprecipitation from SKBR3 extract, blot detected with antiserum 21N
human c-erbB-2 protein [2] = target: T1, human c-erbB-2 protein (human, UniProt P04626); test: immunofluorescent staining of fixed HC11 cells transfected with human c-erbB-2 (clone R1#11), non-transfected HC11 as control; screen of hybridoma supernatants
human c-erbB-2 protein [3] = target: T1, human c-erbB-2 protein; test: flow cytometry on SKBR3 cells

B1: mouse monoclonal antibody FRP5 (antibody, V domains shown)
VH: QVQLQQSGPELKKPGETVKISCKASGYPFTNYGMNWVKQAPGQGLKWMGWINTSTGESTFADDFKGRFDFSLETSANTAYLQINNLKSEDMATYFCARWEVYHGYVPYWGQGTTVTVSS
VL: DIQLTQSHKFLSTSVGDRVSITCKASQDVYNAVAWYQQKPGQSPKLLIYSASSRYTGVPSRFTGSGSGPDFTFTISSVQAEDLAVYFCQQHFRTPFTFGSGTKLEI
- binding result [1]: binds
- binding result (human c-erbB-2 protein [2]): binds

B2: mouse monoclonal antibody FWP51 (antibody, V domains shown)
VH: QVQLQQSGAELVRPGTSVKLSCKASDYTFTSYWMNWVKQRPGQGLEWIGMIDPSDSETQYNQMFKDKAALTVDKSSNTAYMQLSSLTSEDSAVYYCAKGGASGDWYFDVWGQGTTVTVSS
VL: DIQLTQSPSSLSASLGGEVTITCKASQDIKKYIAWYQHKPGKSPRLLIHYTSVLQPGIPSRFSGSGSGRDYSFSIHNLEPEDIATYYCLHYDYLYTFGGGTKLEI
- binding result [1]: binds
- binding result (human c-erbB-2 protein [3]): binds
